Data from patent publication US20240000838A1 (SIMCERE INNOVATION, published 2024).
Residue numbers refer to the chain shown, from its start.

T1: CD5 on human T cells (autologous and allogeneic Pan-T cells) and on the T-ALL cell line CCRF-CEM (human, UniProt P06127 25-495)
T1 sequence (looked up): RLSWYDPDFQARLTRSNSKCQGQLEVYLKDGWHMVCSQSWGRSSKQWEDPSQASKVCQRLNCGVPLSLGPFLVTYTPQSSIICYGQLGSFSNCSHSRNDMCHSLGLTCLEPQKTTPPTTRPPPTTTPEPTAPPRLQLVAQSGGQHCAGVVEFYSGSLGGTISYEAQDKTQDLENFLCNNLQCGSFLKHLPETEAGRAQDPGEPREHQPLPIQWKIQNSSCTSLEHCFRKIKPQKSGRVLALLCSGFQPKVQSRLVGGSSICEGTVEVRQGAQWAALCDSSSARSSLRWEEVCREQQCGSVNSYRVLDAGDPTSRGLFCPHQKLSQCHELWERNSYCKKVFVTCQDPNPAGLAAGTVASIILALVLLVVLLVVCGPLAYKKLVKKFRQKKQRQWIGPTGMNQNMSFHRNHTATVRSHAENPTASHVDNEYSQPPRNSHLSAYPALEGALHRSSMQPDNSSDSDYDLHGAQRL

T2: Human CD5 Protein, HisTag (AcroBiosystems, Cat #CD5-H52H5) (human, UniProt P06127 25-372)
T2 construct: Bought staining reagent, detected with His-APC antibody; also called CD5 antigen; APC labeled CD5 antigen; not shown: His tag
T2 sequence (looked up): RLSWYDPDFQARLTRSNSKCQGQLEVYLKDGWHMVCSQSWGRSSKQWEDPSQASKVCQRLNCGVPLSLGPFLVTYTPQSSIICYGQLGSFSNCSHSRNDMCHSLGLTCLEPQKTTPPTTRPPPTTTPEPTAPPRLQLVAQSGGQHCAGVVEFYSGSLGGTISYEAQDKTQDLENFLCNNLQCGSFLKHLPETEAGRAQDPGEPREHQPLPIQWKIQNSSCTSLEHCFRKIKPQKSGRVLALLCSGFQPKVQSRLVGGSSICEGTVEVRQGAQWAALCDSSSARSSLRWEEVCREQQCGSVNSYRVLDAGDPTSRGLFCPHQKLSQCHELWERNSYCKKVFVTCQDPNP

B1: CD5/CD33 Dual-CAR, construct S048 (other)
chain: DIQMTQSPSSLSASVGDRVTITCRASESVDNYGISFMNWFQQKPGKAPKLLIYAASNQGSGVPSRFSGSGSGTDFTLTISSLQPDDFATYYCQQSKEVPWTFGQGTKVEIKGGGGSGGGGSGGGGSQVQLVQSGAEVKKPGSSVKVSCKASGYTFTDYNMHWVRQAPGQGLEWIGYIYPYNGGTGYNQKFKSKATITADESTNTAYMELSSLRSEDTAVYYCARGRPAMDYWGQGTLVTVSSASTTTPAPRPPTPAPTIASQPLSLRPEACRPAAGGAVHTRGLDFACDIYIWAPLAGTCGVLLLSLVITLYCKRGRKKLLYIFKQPFMRPVQTTQEEDGCSCRFPEEEEGGCELRVKFSRSADAPAYKQGQNQLYNELNLGRREEYDVLDKRRGRDPEMGGKPRRKNPQEGLYNELQKDKMAEAYSEIGMKGERRRGKGHDGLYQGLSTATKDTYDALHMQALPPRGSGATNFSLLKQAGDVEENPGPMALPVTALLLPLALLLHAARPDIKMTQSPSSMYASLGERVTITCKASQDINSYLSWFHHKPGKSPKTLIYRANRLVDGVPSRFSGSGSGQDYSLTISSLDYEDMGIYYCQQYDESPWTFGGGTKLEMKGGGGSGGGGSGGGGSNIQLVQSGPELKKPGETVKISCKASGYTFTNYGMNWVKQAPGKGLRWMGWINTHTGEPTYADDFKGRFAFSLETSASTAYLQINNLKNEDTATYFCTRRGYDWYFDVWGAGTTVTVSSSGTTTPAPRPPTPAPTIASQPLSLRPEACRPAAGGAVHTRGLDFACDIYIWAPLAGTCGVLLLSLVITLYCKRGRKKLLYIFKQPFMRPVQTTQEEDGCSCRFPEEEEGGCELRVKFSRSADAPAYKQGQNQLYNELNLGRREEYDVLDKRRGRDPEMGGKPRRKNPQEGLYNELQKDKMAEAYSEIGMKGERRRGKGHDGLYQGLSTATKDTYDALHMQALPPRFE
B2: CD5 CAR CAR5-2, construct S006 (other)
chain: NIQLVQSGPELKKPGETVKISCKASGYTFTNYGMNWVKQAPGKGLRWMGWINTHTGEPTYADDFKGRFAFSLETSASTAYLQINNLKNEDTATYFCTRRGYDWYFDVWGAGTTVTVSSGGGGSGGGGSGGGGSDIKMTQSPSSMYASLGERVTITCKASQDINSYLSWFHHKPGKSPKTLIYRANRLVDGVPSRFSGSGSGQDYSLTISSLDYEDMGIYYCQQYDESPWTFGGGTKLEMKASTTTPAPRPPTPAPTIASQPLSLRPEACRPAAGGAVHTRGLDFACDIYIWAPLAGTCGVLLLSLVITLYCKRGRKKLLYIFKQPFMRPVQTTQEEDGCSCRFPEEEEGGCELRVKFSRSADAPAYKQGQNQLYNELNLGRREEYDVLDKRRGRDPEMGGKPRRKNPQEGLYNELQKDKMAEAYSEIGMKGERRRGKGHDGLYQGLSTATKDTYDALHMQALPPR
notes: Chimeric antigen receptor on T cells
B3: CD5/CD33 Dual-CAR, construct S043 (other)
chain: QVQLVQSGAEVKKPGSSVKVSCKASGYTFTDYNMHWVRQAPGQGLEWIGYIYPYNGGTGYNQKFKSKATITADESTNTAYMELSSLRSEDTAVYYCARGRPAMDYWGQGTLVTVSSGGGGSDIQMTQSPSSLSASVGDRVTITCRASQDINSYLSWFQQKPGKAPKTLIYRANRLESGVPSRFSGSGSGTDYTLTISSLQYEDFGIYYCQQYDESPWTFGGGTKLEIKGSTSGSGKPGSGEGSTKGEIQLVQSGGGLVKPGGSVRISCAASGYTFTNYGMNWVRQAPGKGLEWMGWINTHTGEPTYADSFKGRFTFSLDDSKNTAYLQINSLRAEDTAVYFCTRRGYDWYFDVWGQGTTVTVSSGGGGSDIQMTQSPSSLSASVGDRVTITCRASESVDNYGISFMNWFQQKPGKAPKLLIYAASNQGSGVPSRFSGSGSGTDFTLTISSLQPDDFATYYCQQSKEVPWTFGQGTKVEIKASTTTPAPRPPTPAPTIASQPLSLRPEACRPAAGGAVHTRGLDFACDIYIWAPLAGTCGVLLLSLVITLYCKRGRKKLLYIFKQPFMRPVQTTQEEDGCSCRFPEEEEGGCELRVKFSRSADAPAYKQGQNQLYNELNLGRREEYDVLDKRRGRDPEMGGKPRRKNPQEGLYNELQKDKMAEAYSEIGMKGERRRGKGHDGLYQGLSTATKDTYDALHMQALPPR
B4: CD5/CD33 Dual-CAR, construct S049 (other)
chain: DIQMTQSPSSLSASVGDRVTITCRASESVDNYGISFMNWFQQKPGKAPKLLIYAASNQGSGVPSRFSGSGSGTDFTLTISSLQPDDFATYYCQQSKEVPWTFGQGTKVEIKGGGGSGGGGSGGGGSQVQLVQSGAEVKKPGSSVKVSCKASGYTFTDYNMHWVRQAPGQGLEWIGYIYPYNGGTGYNQKFKSKATITADESTNTAYMELSSLRSEDTAVYYCARGRPAMDYWGQGTLVTVSSASTTTPAPRPPTPAPTIASQPLSLRPEACRPAAGGAVHTRGLDFACDIYIWAPLAGTCGVLLLSLVITLYCKRGRKKLLYIFKQPFMRPVQTTQEEDGCSCRFPEEEEGGCELRVKFSRSADAPAYKQGQNQLYNELNLGRREEYDVLDKRRGRDPEMGGKPRRKNPQEGLYNELQKDKMAEAYSEIGMKGERRRGKGHDGLYQGLSTATKDTYDALHMQALPPRGSGATNFSLLKQAGDVEENPGPMALPVTALLLPLALLLHAARPDIQMTQSPSSLSASVGDRVTITCRASQDINSYLSWFQQKPGKAPKTLIYRANRLESGVPSRFSGSGSGTDYTLTISSLQYEDFGIYYCQQYDESPWTFGGGTKLEIKGGGGSGGGGSGGGGSEIQLVQSGGGLVKPGGSVRISCAASGYTFTNYGMNWVRQAPGKGLEWMGWINTHTGEPTYADSFKGRFTFSLDDSKNTAYLQINSLRAEDTAVYFCTRRGYDWYFDVWGQGTTVTVSSSGTTTPAPRPPTPAPTIASQPLSLRPEACRPAAGGAVHTRGLDFACDIYIWAPLAGTCGVLLLSLVITLYCKRGRKKLLYIFKQPFMRPVQTTQEEDGCSCRFPEEEEGGCELRVKFSRSADAPAYKQGQNQLYNELNLGRREEYDVLDKRRGRDPEMGGKPRRKNPQEGLYNELQKDKMAEAYSEIGMKGERRRGKGHDGLYQGLSTATKDTYDALHMQALPPRFE
B5: CD33 CAR CAR33-1, construct S011 (other)
chain: DIQMTQSPSSLSASVGDRVTITCRASESVDNYGISFMNWFQQKPGKAPKLLIYAASNQGSGVPSRFSGSGSGTDFTLTISSLQPDDFATYYCQQSKEVPWTFGQGTKVEIKGGGGSGGGGSGGGGSQVQLVQSGAEVKKPGSSVKVSCKASGYTFTDYNMHWVRQAPGQGLEWIGYIYPYNGGTGYNQKFKSKATITADESTNTAYMELSSLRSEDTAVYYCARGRPAMDYWGQGTLVTVSSASTTTPAPRPPTPAPTIASQPLSLRPEACRPAAGGAVHTRGLDFACDIYIWAPLAGTCGVLLLSLVITLYCKRGRKKLLYIFKQPFMRPVQTTQEEDGCSCRFPEEEEGGCELRVKFSRSADAPAYKQGQNQLYNELNLGRREEYDVLDKRRGRDPEMGGKPRRKNPQEGLYNELQKDKMAEAYSEIGMKGERRRGKGHDGLYQGLSTATKDTYDALHMQALPPR
notes: as for B2
B6: CD33 CAR CAR33-4, construct S014 (other)
chain: QVQLQQPGAEVVKPGASVKMSCKASGYTFTSYYIHWIKQTPGQGLEWVGVIYPGNDDISYNQKFQGKATLTADKSSTTAYMQLSSLTSEDSAVYYCAREVRLRYFDVWGQGTTVTVSSGGGGSGGGGSGGGGSEIVLTQSPGSLAVSPGERVTMSCKSSQSVFFSSSQKNYLAWYQQIPGQSPRLLIYWASTRESGVPDRFTGSGSGTDFTLTISSVQPEDLAIYYCHQYLSSRTFGQGTKLEIKRASTTTPAPRPPTPAPTIASQPLSLRPEACRPAAGGAVHTRGLDFACDIYIWAPLAGTCGVLLLSLVITLYCKRGRKKLLYIFKQPFMRPVQTTQEEDGCSCRFPEEEEGGCELRVKFSRSADAPAYKQGQNQLYNELNLGRREEYDVLDKRRGRDPEMGGKPRRKNPQEGLYNELQKDKMAEAYSEIGMKGERRRGKGHDGLYQGLSTATKDTYDALHMQALPPR
notes: as for B2
B7: CD33 CAR CAR33-6, construct S016 (other)
chain: B6 chain with Q65K, Q110A, E134N, V136M, G142S, P148A, R151K, R184K, P219S, Q238G
notes: as for B2
B8: CD33 CAR CAR33-2, construct S012 (other)
chain: QVQLVQSGAEVKKPGSSVKVSCKASGYTFTDYNMHWVRQAPGQGLEWIGYIYPYNGGTGYNQKFKSKATITADESTNTAYMELSSLRSEDTAVYYCARGRPAMDYWGQGTLVTVSSGGGGSGGGGSGGGGSDIQMTQSPSSLSASVGDRVTITCRASESVDNYGISFMNWFQQKPGKAPKLLIYAASNQGSGVPSRFSGSGSGTDFTLTISSLQPDDFATYYCQQSKEVPWTFGQGTKVEIKASTTTPAPRPPTPAPTIASQPLSLRPEACRPAAGGAVHTRGLDFACDIYIWAPLAGTCGVLLLSLVITLYCKRGRKKLLYIFKQPFMRPVQTTQEEDGCSCRFPEEEEGGCELRVKFSRSADAPAYKQGQNQLYNELNLGRREEYDVLDKRRGRDPEMGGKPRRKNPQEGLYNELQKDKMAEAYSEIGMKGERRRGKGHDGLYQGLSTATKDTYDALHMQALPPR
notes: as for B2

Legend:
[1] = biological target: T1, CD5 on human T cells (autologous and …); experiment: cell-based or functional assay
[2] = biological target: T2, Human CD5 Protein, HisTag …; experiment: flow cytometry; CAR-T cells stained with soluble human CD5-His and His-APC antibody
Method: (§1) CD3 and CD5 are stained with a CD3-FITC antibody (BD Biosciences, #555339) and a CD5-APC antibody (BD Biosciences, #555355) for 30 minutes at R.T. in the dark. CAR5 surface expression is detected by staining with Human CD5 Protein, HisTag (AcroBiosystems, Cat #CD5-H52H5) for 1 hour at R.T., washed and then incubated with His-APC antibody (R&D Systems, IC050A) for 30 minutes at R.T. in the dark. CAR33 expression is stained with CD33 human protein-PE (Sino Biological, 12238-HCCH_P) for 1 hour at R.T. All the staining is performed at 1:10 dilutions. DAPI (Thermo Scientific, Cat #BV-421, 1:5000) is used to stain dead cells before running by the Attune NxT Flow Cytometer (Thermo Fisher Scientific). Data is further analyzed by either using Attune NxT flow software or FlowJo software.

[3] = biological target: T3, CD33 human protein-PE (Sino Biological, 12238-HCCH_P) (human, UniProt P20138 18-259, PE label); experiment: flow cytometry; CAR-T cells stained with CD33 human protein-PE
T3 construct: Bought staining reagent; also called CD33 antigen
Method: as §1

T3 sequence (P20138 18-259 limits assumed): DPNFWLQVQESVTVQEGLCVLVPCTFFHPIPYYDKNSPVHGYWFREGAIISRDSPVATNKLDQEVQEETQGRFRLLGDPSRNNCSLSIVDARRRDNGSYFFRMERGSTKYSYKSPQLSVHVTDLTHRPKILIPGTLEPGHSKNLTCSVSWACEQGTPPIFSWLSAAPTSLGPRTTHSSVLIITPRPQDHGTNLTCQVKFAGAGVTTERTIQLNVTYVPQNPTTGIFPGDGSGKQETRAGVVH

Binder	elimination of CCRF-CEM cells after 18 hours (luciferase-based killing assay) [1]	binding result [3]	other results
B1	~100%	–	–
B2	–	–	% of T cells stained with CD5 antigen (CAR5 expression) [2]: > 80%
B3	~100%	–	–
B4	~100%	–	–
B5	–	binds	–
B6	–	binds	–
B7	–	binds	–
B8	–	binds	–
